Laboratory results from the supplement of paper PMC10567573.

B1: RHOBTB3 (parent)
chain: STTEGIQLAKELGATYLELHSLDD
B2: FBF1 (parent)
chain: LQRASILDMRRDHEEQLQRLKLLK

Variants of: B1
Assay: protein stability index of a GFP-peptide fusion (GPS, HEK-293T) (PSI 1-6); higher = more stable
Conditions: c terminus: a fixed tail appended
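Also: lentivirally expressed fusions sorted by FACS into six bins by GFP to DsRed ratio, PSI derived from sequencing read proportions per bin multiplied by bin number.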

Variant	protein stability index
ATTEGIQLAKELGATYLELHSLDD	3.21

Variants of: B2
Assay: as above
Conditions: c terminus: a fixed tail appended

Variant	protein stability index
LQRASILDMRRDHEENLQRLKLLK	3.48
LQRASILDMRRDHEEGLQRLKLLK	4.09
LQRASILDMRRDHEEILQRLKLLK	2.28
LQRASILDMRRDHEEDLQRLKLLK	4.02
LQRASILDMRRDHEESLQRLKLLK	3.43
LQRASILDMRRDHEEFLQRLKLLK	1.73
LQRASILDMRRDHEEKLQRLKLLK	3.61
LQRASILDMRRDHEEHLQRLKLLK	2.64
LQRASILDMRRDHEEALQRLKLLK	3.18
LQRASILDMRRDHEERLQRLKLLK	2.77
LQRASILDMRRDHEEWLQRLKLLK	2.97
LQRASILDMRRDHEEYLQRLKLLK	2.75
LQRASILDMRRDHEEVLQRLKLLK	3.04
LQRASILDMRRDHEEMLQRLKLLK	1.38
LQRASILDMRRDHEEPLQRLKLLK	3.51
LQRASILDMRRDHEECLQRLKLLK	3.09
LQRASILDMRRDHEEELQRLKLLK	3.64
LQRASILDMRRDHEELLQRLKLLK	2.73
LQRASILDMRRDHEETLQRLKLLK	3.45
LQRASILDMRRDHEEQLQRLCLLK	2.65
LQRASILDMRRDHEEQLQRLDLLK	3.88
LQRASILDMRRDHEEQLQRLVLLK	3.07
LQRASILDMRRDHEEQLQRLMLLK	3.55
LQRASILDMRRDHEEQLQRLELLK	4.02

Variant	protein stability index
LQRASILDMRRDHEEQLQRLQLLK	3.18
LQRASILDMRRDHEEQLQRLRLLK	3.28
LQRASILDMRRDHEEQLQRLLLLK	3.01
LQRASILDMRRDHEEQLQRLHLLK	3.29
LQRASILDMRRDHEEQLQRLYLLK	2.98
LQRASILDMRRDHEEQLQRLPLLK	4.75
LQRASILDMRRDHEEQLQRLALLK	3.59
LQRASILDMRRDHEEQLQRLGLLK	3.49
LQRASILDMRRDHEEQLQRLFLLK	2.85
LQRASILDMRRDHEEQLQRLNLLK	3.57
LQRASILDMRRDHEEQLQRLSLLK	3.21
LQRASILDMRRDHEEQLQRLWLLK	2.85
LQRASILDMRRDHEEQLQRLILLK	2.96
LQRASILDMRRDHEEQLQRLTLLK	3.38
LQRASILDMRRDHEEQLWRLKLLK	2.45
LQRASILDMRRDHEEQLPRLKLLK	3.26
LQRASILDMRRDHEEQLMRLKLLK	2.86
LQRASILDMRRDHEEQLTRLKLLK	3.36
LQRASILDMRRDHEEQLYRLKLLK	2.78
LQRASILDMRRDHEEQLRRLKLLK	3.37
LQRASILDMRRDHEEQLVRLKLLK	3.11
LQRASILDMRRDHEEQLCRLKLLK	3.1
LQRASILDMRRDHEEQLKRLKLLK	3.51
LQRASILDMRRDHEEQLFRLKLLK	2.19

Variant	protein stability index
LQRASILDMRRDHEEQLSRLKLLK	3.19
LQRASILDMRRDHEEQLGRLKLLK	3.79
LQRASILDMRRDHEEQLERLKLLK	3.3
LQRASILDMRRDHEEQLIRLKLLK	2.47
LQRASILDMRRDHEEQLARLKLLK	3.7
LQRASILDMRRDHEEQLNRLKLLK	3.6
LQRASILDMRRDHEEQLLRLKLLK	2.92
LQRASILDMRRDHEEQLHRLKLLK	3.02
LQRASILDMRRDHEEQLDRLKLLK	3.58
LQRASILDMRRDHEMQLQRLKLLK	3.12
LQRASILDMRRDHEHQLQRLKLLK	3.09
LQRASILDMRRDHEIQLQRLKLLK	2.37
LQRASILDMRRDHEQQLQRLKLLK	3.18
LQRASILDMRRDHERQLQRLKLLK	3.22
LQRASILDMRRDHEPQLQRLKLLK	3.22
LQRASILDMRRDHENQLQRLKLLK	2.91
LQRASILDMRRDHEWQLQRLKLLK	2.29
LQRASILDMRRDHETQLQRLKLLK	3.39
LQRASILDMRRDHEVQLQRLKLLK	3.13
LQRASILDMRRDHEGQLQRLKLLK	3.56
LQRASILDMRRDHEFQLQRLKLLK	2.68
LQRASILDMRRDHEKQLQRLKLLK	3.04
LQRASILDMRRDHELQLQRLKLLK	2.56
LQRASILDMRRDHEYQLQRLKLLK	2.84

Variant	protein stability index
LQRASILDMRRDHESQLQRLKLLK	2.96
LQRASILDMRRDHEEQLQRLKLKK	4.22
LQRASILDMRRDHEEQLQRLKLQK	4.15
LQRASILDMRRDHEEQLQRLKLYK	3.12
LQRASILDMRRDHEEQLQRLKLDK	4.62
LQRASILDMRRDHEEQLQRLKLHK	4.26
LQRASILDMRRDHEEQLQRLKLGK	3.94
LQRASILDMRRDHEEQLQRLKLFK	3.88
LQRASILDMRRDHEEQLQRLKLTK	4.03
LQRASILDMRRDHEEQLQRLKLPK	3.89
LQRASILDMRRDHEEQLQRLKLMK	4.21
LQRASILDMRRDHEEQLQRLKLWK	3
LQRASILDMRRDHEEQLQRLKLRK	3.94
LQRASILDMRRDHEEQLQRLKLEK	4.8
LQRASILDMRRDHEEQLQRLKLSK	4.42
LQRASILDMRRDHEEQLQRLKLCK	4.09
LQRASILDMRRDHEEQLQRLKLNK	4.54
LQRASILDMRRDHEEQLQRLKLVK	3.69
LQRASILDMRRDHEEQLQRLKLIK	3.88
LQRASILDMRRDHEEQLQRLKLAK	4.14
LQRASILDMRRDHEEQAQRLKLLK	3.9
